From publication PMC2962900, “Kinetics of Methylation by EcoP1I DNA Methyltransferase” (Enzyme Research, 2010) come the findings set out here.

Substrate in the data set “purified protein”: C[S+](CC[C@H](N)C(=O)O)C[C@H]1O[C@@H](n2cnc3c(N)ncnc32)[C@H](O)[C@@H]1O
In words: purified protein. The note with it: Mg2+; DNA 1 μM (which DNA not stated); enzyme 400 nM; AdoMet 50 nM-2 μM; 30 min; labelled compound.

Data set [1] concerns the molecule itself. The experiment in a line: SEC; Superose 6 HR 10/30, buffer B (10 mM Tris-HCl pH 7.4, 100 mM NaCl, 0.1 mM EDTA, 10% glycerol, 7 mM beta-mercaptoethanol), 0.2 mL/min; 3-15 uM M.EcoP1I loaded; column calibrated with marker proteins. For orientation: Size exclusion chromatography separates by hydrodynamic size, large species first.

B1: EcoP1I DNA methyltransferase (M.EcoP1I) (Escherichia phage P1) (protein)
chain: MKKETIFSEVETANSKQLAVLKANFPQCFDKNGAFIQEKLLEIIRASEVELSKESYSLNWLGKSYARLLANLPPKTLLAEDKTHNQQEENKNSQNLLIKGDNLEVLKHMVNAYAEKVNMIYIDPPYNTGKDGFVYNDDRKFTPEQLSELAGIELDEANRILEFTTKGSSSHSAWLTFIYPRLYIARELLKEDGVIFISIDDNEDKQLGLLCDEVFGQGNFVAKLPTIMNLKGNHDNFGFSDTHEYIYVYAKNKDVCSLGQFDIDESEVEKEWDEDEYGLFKRADTLKRTGQDASRKSRPKGWFPVFINSENKVYVTDDDKPLNEDDYVLYPVSPTGEELSWSWGKKKINDEFYNLIVIDIKDGKNIYKKQRPALGELPTKKPKSIWYKPEYSTSTATTELKNLLGAKLFEGPKPVPLITDLVKIGTKKDSLVLDFFAGSGTTAEAVAYLNEKDSGCRNFICIQKDEVINKTKNAYSLGYRSIFEITKKRIQEVFKKSTTTSDNAAKIGFKVIHTIDDFRAKVESELTLTNHTFFDDAVLTPEQYDALLTTWCVYDGSLLTTPIEDVDLSGYTAHFCNGRLYLIAPNFTSEALKALLQKLDSDEDFAPNKVVFYGCNFESAKQRELNEALKSYANKKSIELDLVVRN
A word on the Km: it is the substrate concentration at which the rate is half of its maximum. B1: in “purified protein”, the Michaelis constant (Km) was 0.5 µM.

B2: EcoP1I DNA methyltransferase (M.EcoP1I) (enzyme, bacteriophage P1, UniProt P08763 1-646, looked up)
chain: MKKETIFSEVETANSKQLAVLKANFPQCFDKNGAFIQEKLLEIIRASEVELSKESYSLNWLGKSYARLLANLPPKTLLAEDKTHNQQEENKNSQNLLIKGDNLEVLKHMVNAYAEKVNMIYIDPPYNTGKDGFVYNDDRKFTPEQLSELAGIELDEANRILEFTTKGSSSHSAWLTFIYPRLYIARELLKEDGVIFISIDDNEDKQLGLLCDEVFGQGNFVAKLPTIMNLKGNHDNFGFSDTHEYIYVYAKNKDVCSLGQFDIDESEVEKEWDEDEYGLFKRADTLKRTGQDASRKSRPKGWFPVFINSENKVYVTDDDKPLNEDDYVLYPVSPTGEELSWSWGKKKINDEFYNLIVIDIKDGKNIYKKQRPALGELPTKKPKSIWYKPEYSTSTATTELKNLLGAKLFEGPKPVPLITDLVKIGTKKDSLVLDFFAGSGTTAEAVAYLNEKDSGCRNFICIQKDEVINKTKNAYSLGYRSIFEITKKRIQEVFKKSTTTSDNAAKIGFKVIHTIDDFRAKVESELTLTNHTFFDDAVLTPEQYDALLTTWCVYDGSLLTTPIEDVDLSGYTAHFCNGRLYLIAPNFTSEALKALLQKLDSDEDFAPNKVVFYGCNFESAKQRELNEALKSYANKKSIELDLVVRN
notes: EcoP1I DNA methyltransferase, product of the mod gene of the EcoP1I Type III restriction-modification system of bacteriophage (prophage) P1; 1948 bp gene amplified with primers from the 5' and 3' ends of the open reading frame, cloned in the BamHI site of pET15b (construct pSN2); calculated mass ~75 kDa; No removal of the His6 tag is described. pET15b adds linker residues between the tag and the …
As a reminder, the stoichiometry N is the number of molecules, sites or subunits per partner or assembly. For the protein B2, the “stoichiometry N” value in data set [1] was found to be 2.
